Measurements: patent US20050106141A1, “Hairless protein-interacting partner complexes and methods thereof for the beautification and/or improvement of mammalian skin” (The Procter & Gamble Company, priority 2003, published 2005)

Target: LexA BD-HRt (mouse)
Experiment: yeast two-hybrid library screen; number of positive clones with this identity

LexA BD-HRt (mouse), sequence (P0A7C2 other isoform, or with tags, fused parts or gaps limits assumed): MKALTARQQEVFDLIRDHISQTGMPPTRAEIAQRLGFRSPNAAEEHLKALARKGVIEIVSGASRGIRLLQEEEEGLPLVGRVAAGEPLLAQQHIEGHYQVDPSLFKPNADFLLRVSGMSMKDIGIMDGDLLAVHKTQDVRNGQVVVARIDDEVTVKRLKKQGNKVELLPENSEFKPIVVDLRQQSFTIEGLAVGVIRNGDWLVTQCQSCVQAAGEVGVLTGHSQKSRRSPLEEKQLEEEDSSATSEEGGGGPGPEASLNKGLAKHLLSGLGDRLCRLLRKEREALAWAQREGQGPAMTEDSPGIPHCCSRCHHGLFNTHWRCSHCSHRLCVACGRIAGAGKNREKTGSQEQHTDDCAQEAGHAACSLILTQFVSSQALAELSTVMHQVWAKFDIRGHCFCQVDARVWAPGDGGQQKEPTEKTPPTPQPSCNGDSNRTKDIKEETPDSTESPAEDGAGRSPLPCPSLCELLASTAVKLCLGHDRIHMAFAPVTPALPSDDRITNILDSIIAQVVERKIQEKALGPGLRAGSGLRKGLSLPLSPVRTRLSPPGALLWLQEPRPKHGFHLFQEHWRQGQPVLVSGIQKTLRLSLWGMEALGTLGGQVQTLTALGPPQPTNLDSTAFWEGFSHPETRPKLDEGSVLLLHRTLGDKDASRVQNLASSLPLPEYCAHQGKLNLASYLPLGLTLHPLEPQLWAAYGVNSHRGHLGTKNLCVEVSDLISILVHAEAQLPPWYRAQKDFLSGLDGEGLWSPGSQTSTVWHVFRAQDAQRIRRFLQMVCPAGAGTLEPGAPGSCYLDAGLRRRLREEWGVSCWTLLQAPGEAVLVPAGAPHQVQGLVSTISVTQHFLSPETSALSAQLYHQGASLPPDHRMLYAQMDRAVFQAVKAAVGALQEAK

For “Homo Sapiens HIC Protein Isoform P32 and Isoform 40 (from UniProt Q9P1T7 1-246)”, the Hits was 1.
